Results as given in patent US20220033501A1.

What was measured:
[1] = target: monkey TIM-3 on CHOK1 stable cell line (CHOK1-cTIM-3) (monkey); experiment: FACS, CHOK1-cTIM-3 cells, 8 nM antibody
[2] = target: human TIM-3 extracellular domain protein with hFc tag (hTIM-3-hFc) (human) (UniProt Q8TDQ0); experiment: ELISA, coated human TIM-3 ECD protein, 66.667 nM antibody
[3] = target: human TIM-3 extracellular domain protein with hFc tag (hTIM-3-hFc) (human) (UniProt Q8TDQ0); experiment: ELISA, coated human TIM-3 ECD protein, 0.0001 nM antibody
[4] = target: human TIM-3 on CHOK1 stable cell line (CHOK1-hTIM-3) (human) (UniProt Q8TDQ0); experiment: FACS, CHOK1-hTIM-3 cells, 0.32 nM antibody
Sequence of human TIM-3 on CHOK1 stable cell line (CHOK1-hTIM-3) (human) (Q8TDQ0 22-301 limits assumed): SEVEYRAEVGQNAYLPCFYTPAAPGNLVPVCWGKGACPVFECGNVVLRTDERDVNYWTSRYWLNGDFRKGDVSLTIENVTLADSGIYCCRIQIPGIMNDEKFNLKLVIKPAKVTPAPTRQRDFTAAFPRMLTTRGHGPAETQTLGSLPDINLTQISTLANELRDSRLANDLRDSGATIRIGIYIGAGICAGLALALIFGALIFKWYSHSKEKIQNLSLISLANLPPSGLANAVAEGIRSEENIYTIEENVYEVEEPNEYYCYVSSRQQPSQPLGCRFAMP

[5] = target: human TIM-3 extracellular domain protein with hFc tag (hTIM-3-hFc) (human) (UniProt Q8TDQ0); experiment: FACS, blocking of hTIM-3-hFc binding to phosphatidylserine on apoptotic Jurkat cells, 7.407 nM antibody
[6] = target: human TIM-3 extracellular domain protein with hFc tag (hTIM-3-hFc) (human) (UniProt Q8TDQ0); experiment: FACS, blocking of hTIM-3-hFc binding to phosphatidylserine on apoptotic Jurkat cells, 200 nM antibody
[7] = target: human TIM-3 on CHOK1 stable cell line (CHOK1-hTIM-3) (human) (UniProt Q8TDQ0); experiment: FACS, CHOK1-hTIM-3 cells, 40 nM antibody
[8] = target: monkey TIM-3 extracellular domain protein with hFc tag (cTIM-3-hFc) (monkey); experiment: ELISA, coated monkey TIM-3 ECD protein, 0.0007 nM antibody
Sequence of monkey TIM-3 extracellular domain protein with hFc tag (cTIM-3-hFc) (monkey) (chain, as listed by the source): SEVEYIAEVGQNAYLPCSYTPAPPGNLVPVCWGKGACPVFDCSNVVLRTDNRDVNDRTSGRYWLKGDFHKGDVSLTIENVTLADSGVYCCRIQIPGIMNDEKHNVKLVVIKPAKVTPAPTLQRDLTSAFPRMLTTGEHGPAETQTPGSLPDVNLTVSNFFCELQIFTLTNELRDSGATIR

[9] = target: human TIM-3 extracellular domain protein with hFc tag (hTIM-3-hFc) (human) (UniProt Q8TDQ0); experiment: FACS, blocking of hTIM-3-hFc binding to phosphatidylserine on apoptotic Jurkat cells, 0.274 nM antibody
[10] = target: murine TIM-3 extracellular domain protein with hFc tag (mTIM-3-hFc) (mouse) (UniProt Q8VIM0); experiment: ELISA, coated mouse TIM-3 ECD protein, 0.0667 nM antibody
Sequence of murine TIM-3 extracellular domain protein with hFc tag (mTIM-3-hFc) (mouse) (Q8VIM0 other isoform, or with tags, fused parts or gaps): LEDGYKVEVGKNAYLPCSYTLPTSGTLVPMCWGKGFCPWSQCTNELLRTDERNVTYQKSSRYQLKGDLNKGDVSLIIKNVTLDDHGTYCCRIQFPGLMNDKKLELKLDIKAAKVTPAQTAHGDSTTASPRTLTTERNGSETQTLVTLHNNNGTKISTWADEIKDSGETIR

[11] = target: human TIM-3 on CHOK1 stable cell line (CHOK1-hTIM-3) (human) (UniProt Q8TDQ0); experiment: FACS, CHOK1-hTIM-3 cells, 8 nM antibody
[12] = target: murine TIM-3 extracellular domain protein with hFc tag (mTIM-3-hFc) (mouse) (UniProt Q8VIM0); experiment: ELISA, coated mouse TIM-3 ECD protein, 6.6667 nM antibody
[13] = target: human TIM-3 extracellular domain protein with hFc tag (hTIM-3-hFc) (human) (UniProt Q8TDQ0); experiment: FACS, blocking of hTIM-3-hFc binding to phosphatidylserine on apoptotic Jurkat cells, 66.667 nM antibody
[14] = target: human TIM-3 on CHOK1 stable cell line (CHOK1-hTIM-3) (human) (UniProt Q8TDQ0); experiment: FACS, CHOK1-hTIM-3 cells, 1.6 nM antibody
[15] = target: monkey TIM-3 on CHOK1 stable cell line (CHOK1-cTIM-3) (monkey); experiment: FACS, CHOK1-cTIM-3 cells, 0 nM antibody
[16] = target: human TIM-3 extracellular domain protein with hFc tag (hTIM-3-hFc) (human) (UniProt Q8TDQ0); experiment: FACS, blocking of hTIM-3-hFc binding to phosphatidylserine on apoptotic Jurkat cells, 22.222 nM antibody
[17] = target: human TIM-3 extracellular domain protein with hFc tag (hTIM-3-hFc) (human) (UniProt Q8TDQ0); experiment: ELISA, coated human TIM-3 ECD protein, 0 nM antibody

Sequence of human TIM-3 extracellular domain protein with hFc tag (hTIM-3-hFc) (human) (Q8TDQ0 22-200): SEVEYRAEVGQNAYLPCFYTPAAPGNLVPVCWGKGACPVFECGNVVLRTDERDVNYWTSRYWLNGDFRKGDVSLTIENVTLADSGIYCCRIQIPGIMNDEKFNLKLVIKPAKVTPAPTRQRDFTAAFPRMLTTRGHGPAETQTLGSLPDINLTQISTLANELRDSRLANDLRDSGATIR
Sequence of monkey TIM-3 on CHOK1 stable cell line (CHOK1-cTIM-3) (monkey) (chain, as listed by the source limits assumed): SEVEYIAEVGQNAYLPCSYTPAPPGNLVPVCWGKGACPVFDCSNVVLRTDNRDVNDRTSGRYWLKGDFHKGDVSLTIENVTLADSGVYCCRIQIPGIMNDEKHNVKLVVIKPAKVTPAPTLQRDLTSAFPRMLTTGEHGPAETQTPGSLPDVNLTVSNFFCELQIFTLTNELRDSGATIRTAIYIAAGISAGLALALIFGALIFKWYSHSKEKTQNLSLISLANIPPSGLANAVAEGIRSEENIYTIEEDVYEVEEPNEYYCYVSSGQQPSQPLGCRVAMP

- Mean fluorescence intensity [1]: 3.7
- OD450 [2]: 0.14
- OD450 [3]: 0.07
- Mean fluorescence intensity [4]: 2.9
- Inhibition ratio (%) [5]: 0.5%
- Inhibition ratio (%) [6]: -7.8%
- Mean fluorescence intensity [7]: 5
- OD450 [8]: 0.14
- Inhibition ratio (%) [9]: -20%
- OD450 [10]: 0.21
- Mean fluorescence intensity [11]: 4.5
- OD450 [12]: 0.3
- Inhibition ratio (%) [13]: 9.6%
- Mean fluorescence intensity [14]: 3.1
- Mean fluorescence intensity [15]: 2.9
- Inhibition ratio (%) [16]: -2.8%
- OD450 [17]: 0.07
Substance: human IgG control (antibody)
